Measurements from patent publication US20250270737A1, “Antibodies That Bind GLP1R” (Twist Bioscience Corporation, priority 2019, published 2025).
Where two headings read alike, the source gives them in different places.

T1: mouse GLP1R (Mus musculus, UniProt O35659)
T1 sequence (O35659 22-463): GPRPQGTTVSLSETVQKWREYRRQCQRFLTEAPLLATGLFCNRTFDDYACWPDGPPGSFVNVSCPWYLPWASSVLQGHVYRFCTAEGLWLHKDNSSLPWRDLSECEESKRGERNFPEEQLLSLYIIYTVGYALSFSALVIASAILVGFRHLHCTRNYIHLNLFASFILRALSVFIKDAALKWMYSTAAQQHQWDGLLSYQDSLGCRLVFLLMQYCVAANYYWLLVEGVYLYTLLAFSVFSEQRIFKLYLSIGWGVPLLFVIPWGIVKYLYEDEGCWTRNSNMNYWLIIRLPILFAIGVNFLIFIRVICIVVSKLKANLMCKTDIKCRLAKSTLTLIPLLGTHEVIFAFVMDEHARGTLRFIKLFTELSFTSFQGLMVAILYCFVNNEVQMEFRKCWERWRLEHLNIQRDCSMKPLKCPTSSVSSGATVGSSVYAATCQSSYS

T2: GLP2R (Homo sapiens, UniProt O95838)
T2 sequence (O95838 1-553): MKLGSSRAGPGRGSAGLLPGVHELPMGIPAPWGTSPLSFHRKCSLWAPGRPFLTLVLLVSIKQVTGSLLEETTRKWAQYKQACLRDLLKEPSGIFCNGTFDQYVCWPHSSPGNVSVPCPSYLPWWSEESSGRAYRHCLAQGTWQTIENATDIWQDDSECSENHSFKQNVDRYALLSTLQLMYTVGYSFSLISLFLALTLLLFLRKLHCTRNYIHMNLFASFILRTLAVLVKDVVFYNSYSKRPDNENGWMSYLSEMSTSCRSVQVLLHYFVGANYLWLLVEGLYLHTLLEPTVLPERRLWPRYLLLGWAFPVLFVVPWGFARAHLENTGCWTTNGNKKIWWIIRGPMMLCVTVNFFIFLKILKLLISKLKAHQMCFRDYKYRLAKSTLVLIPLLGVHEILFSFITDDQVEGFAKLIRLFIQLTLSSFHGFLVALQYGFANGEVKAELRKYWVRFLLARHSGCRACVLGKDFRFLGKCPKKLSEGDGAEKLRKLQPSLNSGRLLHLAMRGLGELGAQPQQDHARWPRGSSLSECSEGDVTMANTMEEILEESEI


Tests used:
C57BL/6NHsd Mice = test: Glucose Tolerance Test (GTT) in wild-type mice; type: in vivo, mouse; details: control mice exhibited a decrease; FIG. 25D
Method: 15 C57BL/6NHsd Mice were used and subjected to a Glucose Tolerance Test (GTT). The in vivo GTT test was performed on three groups of mice with 5 mice per group. […] Blood glucose measurements were recorded for each mouse at 15, 30, 60, 120, and 180 minutes after dextrose injection. […] A third group of mice were the control mice and were not treated. Data is seen for GLP1R-59-2 (agonist), GLP1R-3 (antagonist), and control in FIGS. 25A-25D.

GLP1R [1] = target: T3, GLP1R (Homo sapiens, UniProt P43220); test: cAMP assay, allosteric/antagonist effects on Exendin-4 peptide induced cAMP activity (Example 10); type: cell-based
T3 sequence (P43220 24-463): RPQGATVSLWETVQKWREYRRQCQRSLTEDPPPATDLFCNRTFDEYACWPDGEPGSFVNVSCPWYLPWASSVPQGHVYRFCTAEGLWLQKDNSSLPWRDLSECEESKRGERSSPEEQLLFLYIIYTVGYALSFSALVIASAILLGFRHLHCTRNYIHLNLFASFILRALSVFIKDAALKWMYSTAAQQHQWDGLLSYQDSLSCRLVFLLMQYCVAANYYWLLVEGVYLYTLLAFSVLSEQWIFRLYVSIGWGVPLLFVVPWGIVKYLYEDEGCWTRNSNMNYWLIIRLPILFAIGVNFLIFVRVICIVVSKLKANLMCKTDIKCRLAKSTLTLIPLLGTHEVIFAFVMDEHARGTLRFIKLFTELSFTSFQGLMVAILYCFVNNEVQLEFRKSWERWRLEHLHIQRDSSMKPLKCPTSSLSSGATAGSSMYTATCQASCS

GLP1R [2] = target: T3, GLP1R
Method: All GLP1R scFv clones, as well as pGPCR-GLP1R-43 and pGPCR-GLP1R-44, were assayed for their potential effects on GLP1R signaling by performing cAMP assays (Eurofins DiscoverX Corporation). These assays involve CHO cells that were engineered to overexpress naturally Gαs-coupled wildtype GLP1R and were designed to detect changes in intracellular cAMP levels in response to agonist stimulation of the receptor. The technology involved in detecting cAMP levels was a no wash gain-of-signal competitive immunoassay based on Enzyme Fragment Complementation technology and produced a luminescent signal that was directly proportional to the amount of cAMP in the cells. Experiments were designed to determine agonist or allosteric activity of the IgGs.

C57BL/6J DIO mice = test: Oral glucose tolerance test in mouse model of diet induced obesity; type: in vivo; details: HFD, 10 mg/kg SC, 2 g/kg oral glucose 60 minutes later, FIGS. 24C-24D
Method: The objective of this study was to evaluate the acute effects of a chimeric antibody GLP1R agonist and antagonist on glycemic control in a mouse model of diet induced obesity in C57BL/6J DIO mice. The test articles are seen below in Table 25.
For each test article, 7 different test article groups were generated as summarized in the following Table 26 with 8 animals per group.
On Day 3 (all animals) and Day 1 (Group 1-7), a non-fasting blood glucose was determined by tail snip. Approximately 5-10 μL of blood was collected. The second drop of blood from the animal was placed on a blood glucose test strip and analyzed using a hand-held glucometer (Abbott Alpha Trak).
After a non-fasting blood glucose measurement was made on the day of the procedure, the animals were weighed, tails marked, and the animals placed in clean cages without food. The animals were fasted for 4 hours and a fasting blood glucose measurement was determined.
The oral glucose tolerance test (OGTT) was administered to each animal 60 minutes later. The animals were dosed via oral gavage with 2 g/kg glucose (10 mL/kg). Blood glucose was determined via tail snip with the second drop of blood from the animal placed on a hand-held glucometer (Abbott Alpha Trak) at the following times relative to the glucose dose: 0 (just prior to glucose dose), 15, 30, 60, 90, and 120 minutes. […]

GLP1R [3] = target: T3, GLP1R; test: cAMP assay, allosteric effects on GLP1-7-36 peptide induced cAMP activity (Example 10); type: cell-based; details: FIGS. 10B-10J
Method: Cell binding was determined for the GLP1R variants. […] GLP1R-3, GLP1R-8, GLP1R-26, GLP1R-56, GLP1R-58 and GLP1R-10 were then analyzed for allosteric effects on GLP1-7-36 peptide in a cAMP assay. FIGS. […] show graphs of the GLP1R variants on inhibition of GLP1-7-36 peptide induced cAMP activity.

[4] = Thermal ramp stability (Tm and Tagg), UNcle platform; type: physicochemical
Excerpt: The GLP1R IgGs were characterized for thermal ramp stability (Tm and Tagg). The UNcle platform was used to characterize the IgGs and the data is seen in Table 21.

macaca GLP1R = test: Binding on macaca GLP1R; details: IgG at 100 nM (GLP1R-59-243 at 50 nM); data not shown
Method: (§1) Binding of GLP1R-3, GLP1R-59-242, and GLPTR-43-8 on mouse, macaca, and human GLP1R was determined. […] Binding of GLP1R-59-2, GLP1R-59-241, and GLPTR-59-243 on mouse, macaca, and human GLP1R was determined.

[5] = system: human pancreatic precursor cells expressing endogenous GLP1R; test: Binding to human pancreatic precursor cells expressing endogenous GLP1R
Method: as §1

GLP1R [6] = target: T3, GLP1R; test: Binding on human GLP1R; details: IgG at 100 nM (GLP1R-59-243 at 50 nM); data not shown
Method: as §1

mouse GLP1R = target: T1, mouse GLP1R; test: Binding on mouse GLP1R; details: IgG at 100 nM (GLP1R-59-243 at 50 nM); data not shown
Method: as §1

GLP2R = target: T2, GLP2R; test: Specificity of GLP1R versus GLP2R binding; details: data not shown
GLP1R [7] = target: T3, GLP1R; test: VHH-Fc FACS binding on CHO-GLP1R cells; details: Sample E10.fcs/CHO-GLP1R
Method: A VHH library for GLP1R was developed similar to methods described in Example 14. Briefly, stable cell lines expressing GLP1R were generated, and target expression was confirmed by FACS. Cells expressing >80% of the target were then used for cell-based selections. Five rounds of cell-based selections were carried out against cells stably overexpressing the target of interest. 10^8 cells were used for each round of selection. Before selection on target expressing cells, phage from each round was first depleted on 10^8 CHO background cells. Stringency of selections was increased by increasing the number of washes in subsequent rounds of selections. The […] using trypsin, and the phage was amplified for the next round of panning. A total of 1000 clones from round 4 and round 5 are sequenced by NGS to identify unique clones for reformatting as VHH-Fc.
The data for variant GLP1R-43-77 is seen in FIGS. 22A-22B and Tables 23B-24.

CHO-parent = test: VHH-Fc FACS binding on CHO-parent cells; details: Sample E10.fcs/CHO-parent

| EC50 (GLP1R [1]; EC50 of Exendin-4 induced cAMP in the presence of the GLP1R variant) [nM] | fold-diff (GLP1R [1]; fold difference of Exendin-4 EC50 with variant versus Exendin-4 alone) | EC50 (GLP1R [2]; EC50 of GLP1 (7-36) cAMP response with GLP1R IgG (+100 nM)) [nM] | fold difference of EC50 (GLP1R [2]; EC50 with 100 nM IgG versus no antibody (Table 23)) [fold] | inhibition of GLP1:GLP1R signaling (GLP1R [2]; GLP1 (7-36) titration versus no antibody, FIG. 24A) | inhibition at higher concentrations (GLP1R [2]; following stimulation with 0.05 nM GLP1 (7-36), FIG. 24B) | allosteric inhibition of GLP1-7-36 peptide induced cAMP activity (GLP1R [3]) | binding on macaca GLP1R (macaca GLP1R) | binding on human GLP1R (GLP1R [6]) | binding on mouse GLP1R (mouse GLP1R) | specificity of GLP1R versus GLP2R binding (GLP2R) | Median: RL1-A (GLP1R [7]) | Molecule | change of glucose in a 6 hour fast, pre-dosed animals (C57BL/6NHsd Mice) | glucose levels after glucose administration (OGTT) (C57BL/6J DIO mice) | Average Tagg 266 [4] [°C] | Average Tm2 [4] [°C] | Average Tml [4] [°C] | binding to human pancreatic precursor cells expressing endogenous GLP1R [5] | Median: RL1-A (CHO-parent) |
| --- | --- | --- | --- | --- | --- | --- | --- | --- | --- | --- | --- | --- | --- | --- | --- | --- | --- | --- | --- |
| 0.63 | 5.4 | 1.31 | 2.2 | inhibits GLP1:GLP1R signaling | complete inhibition | allosteric inhibition | found to bind | found to bind | found to bind | specific for GLP1R over GLP2R |  | GLP1R-3: GLP1R antagonist IgG, CDR-H3 SEQ ID NO 2279, heavy chain SEQ ID NO 2320 (antibody) heavy: QVQLVESGGGVVQPGRSLRLSCAASGFTFSSYGMHWVRQAPGKGLEWVSFISYDESNKYYADSVKGRFTISRDNSKNTLYLQMNSLRAEDTAVYYCAKHMSMQEGAVTGEGQAAKEFIAWLVKGRVRADLVGDAFDVWGQGTLVTVSSASTKGPSVFPLAPCSRSTSESTAALGCLVKDYFPEPVTVSWNSGALTSGVHTFPAVLQSSGLYSLSSVVTVPSSNFGTQTYTCNVDHKPSNTKVDKTVERKCCVECPPCPAPPVAGPSVFLFPPKPKDTLMISRTPEVTCVVVDVSHEDPEVQFNWYVDGVEVHNAKTKPREEQFNSTFRVVSVLTVVHQDWLNGKEYKCKVSNKGLPAPIEKTISKTKGQPREPQVYTLPPSREEMTKNQVSLTCLVKGFYPSDIAVEWESNGQPENNYKTTPPMLDSDGSFFLYSKLTVDKSRWQQGNVFSCSVMHEALHNHYTQKSLSLSPGK light: QSVLTQPPSVSAAPGQKVTISCSGSSSNIADNYVSWYQQLPGTAPKLLIYDNNKRPSGIPDRFSGSKSGTSATLGITGLQTGDEADYYCGTWDNYLGAGVFGGGTKLTVLGQPKAAPSVTLFPPSSEELQANKATLVCLISDFYPGAVTVAWKADSSPVKAGVETTTPSKQSNNKYAASSYLSLTPEQWKSHRSYSCQVTHEGSTVEKTVAPTECS | did not show decreased glucose | sustained high glucose levels | 68.4 | 73.5 | 66.7 | found to bound |  |
|  |  |  |  |  |  |  |  |  |  |  | 23439 | GLP1R-43-77: GLP1R VHH Fc binder variant from the VHH library for GLP1R (protein, Fc) VHH: EVQLVESGGGLVQAGGSLRLSCAASGNTYSYKVMGWFRQAPGKEREFVGIIIRNGDTTYYADSVKGRFTISADNAKNTVYLQMNSLKPEDTAVYYCAASPKYMTAYERSYDWGQGTQVTVSS |  |  |  |  |  |  | 237 |
